pKd: −log10 of the molar value.
Columns and labels:
[1] = target: HLA-B*57:01; test: IEDB peptide-MHC binding, purified MHC/competitive/fluorescence; filed as Kd, often an IC50 or EC50 that approximates it; ≥ and ≤ were set here for values at or beyond the usual limits of such assays; conditions: source organism: Zaire ebolavirus
[2] = target: HLA-B*46:01; test: as above; conditions: source organism: Zaire ebolavirus
[3] = target: HLA-B*15:01; test: as above; conditions: source organism: Zaire ebolavirus
[4] = target: HLA-B*51:01; test: as above; conditions: source organism: Zaire ebolavirus
[5] = target: HLA-B*39:01; test: as above; conditions: source organism: Zaire ebolavirus
[6] = target: HLA-A*02:01; test: as above; conditions: source organism: Zaire ebolavirus
[7] = target: HLA-B*27:03; test: as above; conditions: source organism: Zaire ebolavirus
[8] = target: HLA-A*69:01; test: as above; conditions: source organism: Zaire ebolavirus
[9] = target: HLA-A*26:01; test: as above; conditions: source organism: Zaire ebolavirus
[10] = target: HLA-A*24:03; test: IEDB peptide-MHC binding, purified MHC/direct/fluorescence; filed as Kd, often an IC50 or EC50 that approximates it; ≥ and ≤ were set here for values at or beyond the usual limits of such assays; conditions: source organism: Zaire ebolavirus
[11] = target: HLA-A*29:02; test: as above; conditions: source organism: Zaire ebolavirus
[12] = target: HLA-A*02:03; test: as above; conditions: source organism: Zaire ebolavirus
[13] = target: HLA-A*68:02; test: as above; conditions: source organism: Zaire ebolavirus
[14] = target: HLA-A*02:12; test: as above; conditions: source organism: Zaire ebolavirus
[15] = target: HLA-A*03:01; test: as above; conditions: source organism: Zaire ebolavirus
[16] = target: HLA-A*02:19; test: as above; conditions: source organism: Zaire ebolavirus
[17] = target: HLA-B*40:01; test: as above; conditions: source organism: Ebola virus - Gabon (1994-1997)

Sequence LEFNSSLAI has a pKd [1] of no more than 4.70, a pKd [2] of no more than 4.70 and a pKd [3] of no more than 4.70. For the same sequence, the pKd [4] was no more than 4.70, the pKd [5] was no more than 4.70 and the pKd [6] was no more than 4.70. It also gave a pKd [7] of no more than 4.70, a pKd [8] of no more than 4.70 and a pKd [9] of no more than 4.70. It also gave a pKd [10] of no more than 4.70, a pKd [11] of no more than 4.70 and a pKd [12] of no more than 4.70. The pKd [13] was no more than 4.70, the pKd [14] was no more than 4.70 and the pKd [15] was no more than 4.70. It also gave a pKd [16] of no more than 4.70 and a pKd [17] of 7.59.

From the Immune Epitope Database (IEDB)
